Experimental data from patent publication US20200199241A1 (Chugai, published 2020).
Changes are numbered by the printed parent chain.

B1: IgG1-F585 (antibody)
heavy: QVQLQESGPGLVKPSETLSLTCAVSGHSISHDHAWSWVRQPPGEGLEWIGFISYSGITNYNPSLQGRVTISRDNSKNTLYLQMNSLRAEDTAVYYCARSLARTTAMDYWGEGTLVTVSSASTKGPSVFPLAPSSKSTSGGTAALGCLVKDYFPEPVTVSWNSGALTSGVHTFPAVLQSSGLYSLSSVVTVPSSSLGTQTYICNVNHKPSNTKVDKKVEPKSCDKTHTCPPCPAPELLGGPKVFLFPPKPKDTLYISRTPEVTCVVVDVSHEDPEVKFNWYVDGVEVHEAKTKPREEQYNSTYRVVSVLTPLHQDWLNGKEYKCKVSNKALPAPIEKTISKAKGQPREPQVYTLPPSRDELTKNQVSLTCLVKGFYPSDIAVEWESNGQPENNYKTTPPVLDSDGSFFLYSKLTVDKSRWQQGNVFSCSVMHEALHNHYTQKSLSLSP
light: not shown
notes: EU numbering; copies: 2 + 2
B2: IgG1-F598 (antibody)
heavy: B1 heavy with K241S, E288N, P310V, D314A, P389E, N436Y
light: not shown
notes: EU numbering; copies: 2 + 2
B3: IgG1-F624 (antibody)
heavy: B1 heavy with Y254M, P259A, T309Q, P310V, M430L, N436Y
light: not shown
notes: EU numbering; copies: 2 + 2
B4: IgG1-F642 (antibody)
heavy: B1 heavy with E288N, Q388K, N436Y
light: not shown
notes: EU numbering; copies: 2 + 2
B5: IgG1-F639 (antibody)
heavy: B1 heavy with K241S, E288N, G387R, N436Y
light: not shown
notes: EU numbering; copies: 2 + 2
B6: IgG1-F641 (antibody)
heavy: B1 heavy with K241S, E288N, Q388K, N436Y
light: not shown
notes: EU numbering; copies: 2 + 2
B7: IgG1-F643 (antibody)
heavy: B1 heavy with L237G, G238R, E288N, N436Y
light: not shown
notes: EU numbering; copies: 2 + 2
B8: IgG1-F595 (antibody)
heavy: B1 heavy with E288N, P310V, M430I, N436Y
light: not shown
notes: EU numbering; copies: 2 + 2
B9: IgG1-F650 (antibody)
heavy: B1 heavy with T258E, E288N, P310V, N436Y
light: not shown
notes: EU numbering; copies: 2 + 2
B10: IgG1-F647 (antibody)
heavy: B1 heavy with P240D, K241S, E288N, N436Y
light: not shown
notes: EU numbering; copies: 2 + 2
B11: IgG1-F634 (antibody)
heavy: B1 heavy with V284D, E288N, N436Y
light: not shown
notes: EU numbering; copies: 2 + 2
B12: IgG1-F612 (antibody)
heavy: B1 heavy with K241S, E288N, T309P, P310I, L311A, N436Y
light: not shown
notes: EU numbering; copies: 2 + 2
B13: IgG1-F599 (antibody)
heavy: B1 heavy with K241S, E288N, P310V, P389E, M430Y, N436Y
light: not shown
notes: EU numbering; copies: 2 + 2
B14: IgG1-F629 (antibody)
heavy: B1 heavy with K241S, V281L, E288N, N436Y
light: not shown
notes: EU numbering; copies: 2 + 2
B15: IgG1-F635 (antibody)
heavy: B1 heavy with K241S, V286K, E288N, N436Y
light: not shown
notes: EU numbering; copies: 2 + 2
B16: IgG1-F586 (antibody)
heavy: B1 heavy with M430I
light: not shown
notes: EU numbering; copies: 2 + 2
B17: IgG1-F620 (antibody)
heavy: B1 heavy with S256T, E288N, P310V, N436Y
light: not shown
notes: EU numbering; copies: 2 + 2
B18: IgG1-F649 (antibody)
heavy: B1 heavy with P310V, N436Y
light: not shown
notes: EU numbering; copies: 2 + 2
B19: IgG1-F597 (antibody)
heavy: B1 heavy with K241S, E288N, P310V, E384A, P389E, N436Y
light: not shown
notes: EU numbering; copies: 2 + 2
B20: IgG1-F596 (antibody)
heavy: B1 heavy with K241S, E288N, P310V, D314A, E384A, M430Y, N436Y
light: not shown
notes: EU numbering; copies: 2 + 2
B21: IgG1-F623 (antibody)
heavy: B1 heavy with Y254W, E288N, P310V, N436W
light: not shown
notes: EU numbering; copies: 2 + 2
B22: IgG1-F637 (antibody)
heavy: B1 heavy with K241S, E288N, K290S, N436Y
light: not shown
notes: EU numbering; copies: 2 + 2
B23: IgG1-F611 (antibody)
heavy: B1 heavy with K241S, E288N, V307T, T309P, P310I, L311A, N436Y
light: not shown
notes: EU numbering; copies: 2 + 2
B24: IgG1-F622 (antibody)
heavy: B1 heavy with T258Q, E288N, P310V, N436Y
light: not shown
notes: EU numbering; copies: 2 + 2
B25: IgG1-F638 (antibody)
heavy: B1 heavy with E288N, K290S, N436Y
light: not shown
notes: EU numbering; copies: 2 + 2
B26: IgG1-F646 (antibody)
heavy: B1 heavy with E288N, N299A, N436Y
light: not shown
notes: EU numbering; copies: 2 + 2
B27: IgG1-F594 (antibody)
heavy: B1 heavy with T258E, E288N, M430I, N436Y
light: not shown
notes: EU numbering; copies: 2 + 2
B28: IgG1-F621 (antibody)
heavy: B1 heavy with E288N, T309A, P310V, Q313H, N436Y
light: not shown
notes: EU numbering; copies: 2 + 2
B29: IgG1-F593 (antibody)
heavy: B1 heavy with S256T, E288N, M430I, N436Y
light: not shown
notes: EU numbering; copies: 2 + 2
B30: IgG1-F633 (antibody)
heavy: B1 heavy with K241S, V284D, E288N, N436Y
light: not shown
notes: EU numbering; copies: 2 + 2
B31: IgG1-F645 (antibody)
heavy: B1 heavy with E288N, L330R, N436Y
light: not shown
notes: EU numbering; copies: 2 + 2
B32: IgG1-F601 (antibody)
heavy: B1 heavy with K241S, N436Y
light: not shown
notes: EU numbering; copies: 2 + 2
B33: IgG1-F625 (antibody)
heavy: B1 heavy with Y254M, P259A, E288N, T309Q, P310V, M430L, N436Y
light: not shown
notes: EU numbering; copies: 2 + 2
B34: IgG1-F600 (antibody)
heavy: B1 heavy with K241S, T258Q, E288N, P310V, E384A, N436Y
light: not shown
notes: EU numbering; copies: 2 + 2
B35: IgG1-F636 (antibody)
heavy: B1 heavy with V286K, E288N, N436Y
light: not shown
notes: EU numbering; copies: 2 + 2
B36: IgG1-F587 (antibody)
heavy: B1 heavy with K241S, P310V, M430L, N436Y
light: not shown
notes: EU numbering; copies: 2 + 2
B37: IgG1-F618 (antibody)
heavy: B1 heavy with Y254M, E288N, P310F, N436Y
light: not shown
notes: EU numbering; copies: 2 + 2
B38: IgG1-F592 (antibody)
heavy: B1 heavy with K241S, S256T, E288N, P310V, E384A, N436Y
light: not shown
notes: EU numbering; copies: 2 + 2
B39: IgG1-F644 (antibody)
heavy: B1 heavy with G238R, E288N, N436Y
light: not shown
notes: EU numbering; copies: 2 + 2
B40: IgG1-F619 (antibody)
heavy: B1 heavy with E288N, P310V, N436Y
light: not shown
notes: EU numbering; copies: 2 + 2
B41: IgG1-F640 (antibody)
heavy: B1 heavy with E288N, G387R, N436Y
light: not shown
notes: EU numbering; copies: 2 + 2
B42: IgG1-F630 (antibody)
heavy: B1 heavy with V281L, E288N, N436Y
light: not shown
notes: EU numbering; copies: 2 + 2

Biological target: T1, human FcRn (soluble human FcRn complexed with β2-microglobulin) (human, UniProt P61769 21-119, limits assumed)
T1 construct: also called hFcRn
Assay: SPR, pH 7.0;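 further: antibodies captured on a Protein L sensor chip with human FcRn injected as analyte, KD calculated from fitted association and dissociation rate constants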

| Kd [nM] | Binder |
| --- | --- |
| 290 | B1 |
| 140 | B2 |
| 14 | B3 |
| 30 | B4 |
| 27 | B5 |
| 30 | B6 |
| 32 | B7 |
| 180 | B8 |
| 170 | B9 |
| 29 | B10 |
| 32 | B11 |
| 360 | B12 |
| 520 | B13 |
| 39 | B14 |
| 45 | B15 |
| 140 | B16 |
| 210 | B17 |
| 120 | B18 |
| 220 | B19 |
| 400 | B20 |
| 180 | B21 |

| Kd [nM] | Binder |
| --- | --- |
| 150 | B22 |
| 280 | B23 |
| 350 | B24 |
| 140 | B25 |
| 38 | B26 |
| 16 | B27 |
| 150 | B28 |
| 31 | B29 |
| 24 | B30 |
| 33 | B31 |
| 9.6 | B32 |
| 76 | B33 |
| 280 | B34 |
| 48 | B35 |
| 190 | B36 |
| 640 | B37 |
| 200 | B38 |
| 30 | B39 |
| 310 | B40 |
| 36 | B41 |
| 37 | B42 |
